Source: publication PMC10132808, “Stimulation of the catalytic activity of the tyrosine kinase Btk by the adaptor protein Grb2” (eLife, 2023)

Biological target: T1, Grb2 labeled with Alexa Fluor 647 (UniProt P62993 1-217, Alexa Fluor 647 C2 maleimide on a surface cysteine (at most one per molecule; about 17% labeling overall))
T1 construct: The labeled cysteine is not identified; Only about 17% of the preparation carries the dye; also called Grb2-AlexaFluor647; source: E. coli BL21(DE3), purified (HisTrap, TEV cleavage, gel filtration), labeled by maleimide coupling; not shown: His6, N-terminal, cleaved
Test: TIRF microscopy of recruitment to supported-lipid bilayers; N-terminally His-tagged Btk constructs tethered to bilayers with 4% DGS-NTA(Ni), 96% DOPC, washed after equilibration; Grb2-Alexa Fluor 647 added; fluorescence at the membrane over time
Conditions: both partners purified

binding result: binds
B1: His-tagged Btk proline-rich linker (domain or fragment, human, UniProt Q06187 171-214, looked up)
chain: RNGSLKPGSSHRKTKKPLPPTPEEDQILKKPLPPEPAAAPVSTS
notes: Btk, human, residues 171-214 (proline-rich linker between the PH-TH module and the SH3 domain); A SUMO module may also be kept, because the protease step was left out; also called the isolated proline-rich linker; source: E. coli BL21(DE3), purified (HisTrap, gel filtration; protease step left out); not shown: His6, N-terminal, kept
